Test results published in article PMC9943680 (Nucleic Acids Research, 2023).
Substitutions are numbered along the chain they refer to.

Experiments:
TR4DBD-CTE R168A = biological target: T1, TR4DBD-CTE R168A (Homo sapiens, UniProt P49116 113-200, R168A); test: MST
T1 sequence: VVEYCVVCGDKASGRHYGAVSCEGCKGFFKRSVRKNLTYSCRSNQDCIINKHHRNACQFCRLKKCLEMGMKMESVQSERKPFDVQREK

TR4DBD-CTE S189A = biological target: T2, TR4DBD-CTE S189A (Homo sapiens, UniProt P49116 113-200, S189A); test: MST
T2 sequence: T1 sequence with A56R, S77A

TR4DBD-CTE R191A = biological target: T3, TR4DBD-CTE R191A (Homo sapiens, UniProt P49116 113-200, R191A); test: MST
T3 sequence: T1 sequence with A56R, R79A

TR4DBD-CTE N167K = biological target: T4, TR4DBD-CTE N167K (Homo sapiens, UniProt P49116 113-200, N167K); test: MST
T4 sequence: T1 sequence with N55K, A56R

TR4DBD-CTE R127C = biological target: T5, TR4DBD-CTE R127C (Homo sapiens, UniProt P49116 113-200, R127C); test: MST
T5 sequence: T1 sequence with R15C, A56R

TR4DBD = biological target: T6, TR4DBD (Homo sapiens, UniProt P49116 113-189); test: MST
T6 sequence: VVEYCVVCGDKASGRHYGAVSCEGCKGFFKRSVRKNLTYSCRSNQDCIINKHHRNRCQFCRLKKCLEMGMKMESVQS

[1] = biological target: T7, TR4_(341–596), ligand-binding domain of human testicular receptor 4 (human, UniProt P49116 341-596); test: crystal structure
T7 sequence (looked up): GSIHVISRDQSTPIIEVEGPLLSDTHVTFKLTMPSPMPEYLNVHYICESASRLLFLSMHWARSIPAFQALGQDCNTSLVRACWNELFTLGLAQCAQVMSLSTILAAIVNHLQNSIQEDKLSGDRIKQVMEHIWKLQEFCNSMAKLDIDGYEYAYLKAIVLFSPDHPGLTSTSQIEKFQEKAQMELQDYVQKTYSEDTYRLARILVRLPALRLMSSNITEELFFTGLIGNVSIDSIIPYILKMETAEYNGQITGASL

B1: idRE, 23 bp DR1 (dsDNA)
DNA 1: GGCAGAGGTCAAAGGTCAAACGT
DNA 2: ACGTTTGACCTTTGACCTCTGCC
- binding signal (TR4DBD-CTE R168A): 12 fold decrease vs WT
- binding signal (TR4DBD-CTE S189A): 12 fold decrease vs WT
- binding signal (TR4DBD-CTE R191A): ~60 fold decrease vs WT
- binding signal (TR4DBD-CTE N167K): > 60 fold increase vs WT
- binding signal (TR4DBD-CTE R127C): ~280 fold increase vs WT

B2: 18 bp DR1 (dsDNA)
DNA 1: GGCAGAGGTCAAAGGTCA
DNA 2: CTGACCTTTGACCTCTGC
- Kd (TR4DBD): 38.3 µM

Binder: QQPTYVALSYINRFMTDAARREQES (domain or fragment, human, UniProt Q86VZ6 51-75, looked up) [JAZF1_(51–75)]
- binding result [1]: binds
